# In patent publication US20180355061A1 (Janssen / Centocor, published 2018):
# Residue numbers refer to the chain shown, from its start. Names and notes keep the numbering of the source.
# B1: PD1B1085 (antibody, human IgG1, kappa, V domains shown)
# VH: QVQLVQSGSELKKPGASVKVSCKASGYTFTDYSMHWVRQAPGQGLEWMGWINIETGYPTYAQGFTGRFVFSLDTSVSTAYLQISSLKAEDTAVYFCARDYYGTYFYAMDYWGQGTLVTVSS
# VL: EIVLTQSPATLSLSPGERATLSCTASSSVSSSYLHWYQQKPGLAPRLLIYSTSNLASGIPDRFSGSGSGTDYTLTISRLEPEDFAVYYCHQYHRSPLTFGQGTKLEIKR
# notes: also called VH PD1H585; VL PD1L469
# B2: PD1B1091 (antibody, human IgG1, kappa, V domains shown)
# VH: B1 VH with Y57H
# VL: B1 VL with V29F
# notes: also called VH PD1H586; VL PD1L651
# B3: PD1B1093 (antibody, human IgG1, kappa, V domains shown)
# VH: B1 VH
# VL: B1 VL with S30P
# notes: also called VH PD1H585; VL PD1L652
# B4: PD1B1089 (antibody, human IgG1, kappa, V domains shown)
# VH: B1 VH with Y57E
# VL: B1 VL with S30P
# notes: also called VH PD1H405; VL PD1L652
# B5: PD1B1087 (antibody, human IgG1, kappa, V domains shown)
# VH: B1 VH with Y57W
# VL: B1 VL
# notes: also called VH PD1H587; VL PD1L469
# B6: PD1B1088 (antibody, human IgG1, kappa, V domains shown)
# VH: B1 VH with Y57E
# VL: B1 VL with V29F
# notes: also called VH PD1H405; VL PD1L651
# B7: PD1B1092 (antibody, human IgG1, kappa, V domains shown)
# VH: B1 VH with Y57W
# VL: B1 VL with V29F
# notes: also called VH PD1H587; VL PD1L651
# B8: PD1B1095 (antibody, human IgG1, kappa, V domains shown)
# VH: B1 VH with Y57W
# VL: B1 VL with S30P
# notes: also called VH PD1H587; VL PD1L652
# B9: PD1B845 (antibody, human IgG1, kappa, V domains shown)
# VH: QVQLVQSGAEVKKPGASVKVSCKASGYTFTTYWMHWVRQAPGQGLEWMGEINPNNAGINYAQKFQGRVTLTVDKSISTAYMELSRLRSDDTAVYYCTIDYYDYGGYWGQGTLVTVSS
# VL: DIQMTQSPSSLSASVGDRVTITCKASQNVGTNVAWYQQKPEKAPKSLIYSASYRYSGVPSRFSGSGSGTDFTLTISSLQPEDFATYYCQQYNIYPYTFGQGTKLEIKR
# notes: G56A variant of PD1B750, IgG1; tested as crude supernatant in SPR; also called VH PD1H399; VL PD1L470
# B10: PD1B850 (antibody, human IgG1, kappa, V domains shown)
# VH: B9 VH with A56I
# VL: B9 VL
# notes: G56I variant of PD1B750, IgG1; tested as crude supernatant in SPR; also called VH PD1H404; VL PD1L470
# B11: PD1B847 (antibody, human IgG1, kappa, V domains shown)
# VH: B9 VH with N55Q, A56G
# VL: B9 VL
# notes: N55Q variant of PD1B750, IgG1; tested as crude supernatant in SPR; also called VH PD1H401; VL PD1L470
# B12: PD1B846 (antibody, human IgG1, kappa, V domains shown)
# VH: B9 VH with N55D
# VL: B9 VL
# notes: N55D, G56A variant of PD1B750, IgG1; tested as crude supernatant in SPR; also called VH PD1H400; VL PD1L470
# B13: PD1B848 (antibody, human IgG1, kappa, V domains shown)
# VH: B9 VH with N55K, A56G
# VL: B9 VL
# notes: N55K variant of PD1B750, IgG1; tested as crude supernatant in SPR; also called VH PD1H402; VL PD1L470
# B14: PD1B505 (antibody, human IgG1, kappa, V domains shown)
# VH: DVQLQESGPELKKPGETVKISCKASGYTFTDYSMHWVKQAPGKGLKWMGWINIETGEPTYADDFKGRFAFSLETSASTAYLQINNLKNEDTATYFCARDYYGTYFYAMDYWGQGTTLTVSS
# VL: QIVLTQSPAIMSASLGERVTMTCTASSSVSSSYLHWYQQKPGSSPKLWIYSTSNLASGVPARFSGSGSGTSYSLTISSMEAEDAATYYCHQYHRSPLTFGAGTKLELKR
# notes: Parental mouse antibody cloned as chimeric human IgG1; Bin 1; also called VH PD1H93; VL PD1L30
# B15: PD1B506 (antibody, human IgG1, kappa, V domains shown)
# VH: QVQLQQPGAELVKPGASVKLSCKASGYTFTTYWMHWVKQRPGQGLEWIGEINPNNGGINYNEKFKKKATLTVDKSSSTAYMQLSSLTSEDSAVYYCTIDYYDYGGYWGQGTTLTVSS
# VL: DIVMTQSQKFMSTSVRDRVSVTCKASQNVGTNVAWYQQKPGQSPKALIYSASYRYSGVPDRFTGSGSGTDFTLTITNVQSEDLAEYFCQQYNIYPYTFGSGTKLEMKR
# notes: Parental mouse antibody cloned as chimeric human IgG1; Bin 5; also called VH PD1H90; VL PD1L28
# B16: PD1B849 (antibody, human IgG1, kappa, V domains shown)
# VH: B9 VH with N55E, A56G
# VL: B9 VL
# notes: N55E variant of PD1B750, IgG1; also called VH PD1H403; VL PD1L470
# Biological target: T1, cyno PD-1 (soluble analyte in SPR) (cyno)
# T1 construct: also called cynomolgus PD-1
# Assay: SPR (ProteOn XPR36), mAb captured on anti-human IgG Fc, cyno PD-1 as analyte, 25 C
# Description: (§1) Affinity measurements were performed using a ProteOn XPR36 system (BioRad). […] Approximately 5000 RU (response units) of mAbs were immobilized. The kinetic experiments were performed at 25° C. in running buffer (DPBS+0.01% P20+100 μg/mL BSA). To perform kinetic experiments, 200 RU of mAbs were captured followed by injections of analytes (human and cyno PD-1) at concentrations ranging from 1.563 nM to 400 nM (in a […] serial dilution). The association phase was monitored for 3 minutes at 50 μL/min, then followed by 10 or 15 minutes of buffer flow (dissociation phase). The chip surface was regenerated with two 18 second pulses of 100 mM H₃PO₄ (Sigma, Cat #7961) at 100 μL/min.
# (§2) The collected data were processed using ProteOn Manager software. First, the data was corrected for background using inter-spots. Then, double reference subtraction of the data was performed by using the buffer injection for analyte injections. The kinetic analysis of the data was performed using a Langmuir 1:1 binding model. The result for each mAb was reported in the format of ka (On-rate), kd (Off-rate) and KD (equilibrium dissociation constant).
# (§3) Affinity of the antibodies to human and cyno PD-1 was measured using SPR as described in Example 1.
Kd [nM],koff [s⁻¹],kon [M⁻¹ s⁻¹],Binder
6.45,0.00129,200000,B1
9.32,0.000924,99100,B2
2.18,0.000368,169000,B3
90,0.00839,93200,B4
11.6,0.00247,212000,B5
72.4,0.00479,66100,B6
3.18,0.000411,129000,B7
4.23,0.000781,185000,B8

# Biological target: T2, human PD-1 (soluble analyte in SPR) (human, UniProt Q15116 25-170, limits assumed)
# T2 construct: also called CD279; PDCD1
# Assay: SPR (ProteOn XPR36), mAb from crude supernatant captured on anti-human IgG Fc, PD-1 as analyte, 25 C
# T2 sequence (Q15116 25-170 limits assumed): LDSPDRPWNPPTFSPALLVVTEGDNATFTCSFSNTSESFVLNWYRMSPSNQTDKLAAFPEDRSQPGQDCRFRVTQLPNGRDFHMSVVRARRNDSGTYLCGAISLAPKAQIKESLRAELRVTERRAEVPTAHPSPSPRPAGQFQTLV
Kd [nM],koff [s⁻¹],kon [M⁻¹ s⁻¹],Binder
24,0.00843,351000,B9
23,0.00719,313000,B10
24.6,0.00744,303000,B11
21.6,0.00753,349000,B12
39.2,0.00991,253000,B13

# Biological target: T2, human PD-1 (soluble analyte in SPR)
# Assay: SPR (ProteOn XPR36), mAb captured on anti-human IgG Fc, PD-1 as analyte, 25 C
# Description: as §1, §2
# Affinity of the parental and humanized antibodies to PD-1 was measured using SPR as described in Example 1.
Kd [nM],koff [s⁻¹],kon [M⁻¹ s⁻¹],Binder
29.1,0.00236,81100,B14
52.4,0.0102,195000,B15
47.1,0.00883,188000,B16

# Biological target: T2, human PD-1 (soluble analyte in SPR)
# Assay: SPR (ProteOn XPR36), mAb captured on anti-human IgG Fc, human PD-1 as analyte, 25 C
# Description: as §1, §2, §3
Kd [nM],koff [s⁻¹],kon [M⁻¹ s⁻¹],Binder
0.911,0.000142,156000,B1
0.83,6.44e-05,77700,B2
0.349,4.36e-05,125000,B3
8.09,0.000474,58600,B4
1.44,0.000239,166000,B5
10.9,0.000341,31300,B6
0.214,3e-05,140000,B7
0.471,7.12e-05,151000,B8
